Laboratory results from patent US20130217572A1, “SPECIFIC DELIVERY OF AGROCHEMICALS” (VRIJE UNIVERSITEIT BRUSSEL, priority 2010, published 2013).
Blank lines part the entries; values can stand above or below the molecule they belong to.

Key:
[1] = target: T1, potato lectin (Sigma) (potato, UniProt Q9S8M0 23-323); test: microcapsule retention; L: amine capsules, BS3 two-step, 0.1 ug VHH/cm2; potato lectin coat 10 ug/ml; 10% coverage
T1 construct: Bought glycoprotein, coated on ELISA plates
T1 sequence (looked up): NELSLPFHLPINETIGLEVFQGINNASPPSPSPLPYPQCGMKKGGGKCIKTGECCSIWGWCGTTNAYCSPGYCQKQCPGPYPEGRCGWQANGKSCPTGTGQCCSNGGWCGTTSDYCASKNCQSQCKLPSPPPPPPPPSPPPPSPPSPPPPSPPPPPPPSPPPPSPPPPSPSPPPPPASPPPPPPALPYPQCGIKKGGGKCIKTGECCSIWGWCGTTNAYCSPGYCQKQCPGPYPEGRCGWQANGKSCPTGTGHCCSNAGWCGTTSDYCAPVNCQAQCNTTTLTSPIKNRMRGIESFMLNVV

[2] = target: T1, potato lectin (Sigma); test: microcapsule retention; C: carboxyl capsules, EDC/Sulfo-NHS, 1 ug VHH/cm2; potato lectin coat 1 ug/ml; 100% coverage
[3] = target: T1, potato lectin (Sigma); test: microcapsule retention; G: amine capsules, BS3 one-step, 1 ug VHH/cm2; potato lectin coat 100 ug/ml; 10% coverage
[4] = target: T1, potato lectin (Sigma); test: microcapsule retention; D: carboxyl capsules, EDC/Sulfo-NHS, 0.1 ug VHH/cm2; potato lectin coat 100 ug/ml; 10% coverage
[5] = target: T1, potato lectin (Sigma); test: microcapsule retention; C: carboxyl capsules, EDC/Sulfo-NHS, 1 ug VHH/cm2; potato lectin coat 10 ug/ml; 100% coverage
[6] = target: T1, potato lectin (Sigma); test: microcapsule retention; D: carboxyl capsules, EDC/Sulfo-NHS, 0.1 ug VHH/cm2; potato lectin coat 1 ug/ml; 10% coverage
[7] = target: T1, potato lectin (Sigma); test: microcapsule retention; G: amine capsules, BS3 one-step, 1 ug VHH/cm2; potato lectin coat 10 ug/ml; 100% coverage
[8] = target: T1, potato lectin (Sigma); test: microcapsule retention; C: carboxyl capsules, EDC/Sulfo-NHS, 1 ug VHH/cm2; potato lectin coat 100 ug/ml; 100% coverage
[9] = target: T1, potato lectin (Sigma); test: microcapsule retention; D: carboxyl capsules, EDC/Sulfo-NHS, 0.1 ug VHH/cm2; potato lectin coat 1 ug/ml; 100% coverage
[10] = target: T1, potato lectin (Sigma); test: microcapsule retention; D: carboxyl capsules, EDC/Sulfo-NHS, 0.1 ug VHH/cm2; potato lectin coat 10 ug/ml; 10% coverage
[11] = target: T1, potato lectin (Sigma); test: microcapsule retention; K: amine capsules, BS3 two-step, 1 ug VHH/cm2; potato lectin coat 100 ug/ml; 10% coverage
[12] = target: T1, potato lectin (Sigma); test: microcapsule retention; H: amine capsules, BS3 one-step, 0.1 ug VHH/cm2; potato lectin coat 1 ug/ml; 100% coverage
[13] = target: T1, potato lectin (Sigma); test: microcapsule retention; K: amine capsules, BS3 two-step, 1 ug VHH/cm2; potato lectin coat 10 ug/ml; 10% coverage
[14] = target: T1, potato lectin (Sigma); test: microcapsule retention; G: amine capsules, BS3 one-step, 1 ug VHH/cm2; potato lectin coat 1 ug/ml; 10% coverage
[15] = target: T1, potato lectin (Sigma); test: microcapsule retention; H: amine capsules, BS3 one-step, 0.1 ug VHH/cm2; potato lectin coat 10 ug/ml; 100% coverage
[16] = target: unrelated antigens; test: VHH-coupled lambda-cyhalothrin microcapsules retained on wells coated with unrelated antigen; 100% surface coverage
[17] = tested on: grass leaf surface; test: VHH binding to leaf discs (microscopy); details: 5 μg/ml in PBS, anti-histidine Alexa-488 detection
Method: (§1) VHH binding to non-fixed leaf discs of potato (variety Désirée), black nightshade, grass, wheat or azalea was investigated. For comparison, binding of CBM3a to non-fixed leaf discs of potato (variety Désirée) was analyzed in parallel. Leaf discs were prepared by punching a fresh potato leaf with a 5 mm belt hole puncher tool. Leaf discs were put immediately in wells of a 96-well plate containing 200 μl per well 5% MPBS or PBS, and incubated for 30 minutes. Leaf discs were transferred to solutions containing 5 μg/ml VHH antibody fragment, respectively 5 μg/ml CBM3a in 2% MPBS or PBS and incubated for 60-90 minutes. Unbound VHH or CBM3a proteins were removed by washing three times with 2% MPBS or PBS. Bound VHH or CBM3a proteins were detected with incubation with monoclonal mouse anti-histidine antibodies directly conjugated with Alexa-488 fluorescent dye (Abd Serotec) in 1% MPBS for 1 hour. Unbound antibodies were removed by washing three times with PBS. Leaf discs were put on glass slides, covered with cover slips, and analyzed by microscopy or on a macrozoom microscope system (Nikon) or a SP5 confocal microscope system (Leica).

[18] = tested on: black nightshade leaf surface; test: VHH binding to leaf discs (microscopy); details: 5 μg/ml in PBS, anti-histidine Alexa-488 detection
Method: as §1

[19] = tested on: intact living potato pot plants; test: VHH binding to intact living plants; set-up: species or system potato (variety Désirée); details: leaves attached to potato pot plant submerged in VHH solution in PBS, 1 hour
Method: Binding of VHH to intact living plants was investigated on potato pot plants (variety Désirée). Compound leaves of intact living plants were submersed in solutions of hexahistidine-tagged VHH in PBS, or PBS alone for control conditions, leaving the compound leaves attached to the plants. VHH were allowed to bind for 1 hour. Next, the compound leaves still attached to the plants were washed five times in PBS in Erlenmeyer flasks. Different leaves and petiole sections were sampled. Bound VHH were detected by incubation with monoclonal mouse anti-histidine antibodies directly conjugated with Alexa-488 fluorescent dye (Abd Serotec) in PBS for 1 hour. Unbound anti-histidine antibodies were removed by washing five times with PBS. Whole leaves, leaf discs, or petiole sections were analyzed for bound VHH with microscopy.

- microcapsule counts (microcapsules) [1]: 186
- microcapsule counts (microcapsules) [2]: 193
- microcapsule counts (microcapsules) [3]: 36
- microcapsule counts (microcapsules) [4]: 125
- microcapsule counts (microcapsules) [5]: 265
- microcapsule counts (microcapsules) [6]: 64
- microcapsule counts (microcapsules) [7]: 104
- microcapsule counts (microcapsules) [8]: 297
- microcapsule counts (microcapsules) [9]: 227
- microcapsule counts (microcapsules) [10]: 118
- microcapsule counts (microcapsules) [11]: 285
- microcapsule counts (microcapsules) [12]: 173
- microcapsule counts (microcapsules) [13]: 197
- microcapsule counts (microcapsules) [14]: 7
- microcapsule counts (microcapsules) [15]: 780
Molecule: Control VHH

B1: VHH 3E6 (VHH)
VHH: QVQLQESGGGLVQPGGTLSLSCAASGFNVRWYGMGWFRQAPGKEREGVACISALQETTAYADSVKGRFTLSRDNPKNTLSLQMNNLQPEDTGVYYCATTDCDDSSRMTYTSYLGQGTQVTVSS
notes: also called Monovalent VHH 3E6
- counts of bound microcapsules (microcapsules) [16]: 861
- binding to native grass leaf surface [17]: binding to leaf surface and wounded plant tissue
- binding to native grass leaf surface ([17]; listed as 3E6): bind specifically
- binding to native black nightshade leaf surface [18]: binding leaf surface, glandular trichomes, and leaf hairs
- binding to native black nightshade leaf surface ([18]; listed as 3E6): bind specifically
- binding to an intact living plant [19]: binding leaf surface, stomata, glandular trichomes, and leaf hairs
